Assay results from patent US8168594B2, “Method for treating celiac disease” (Alba Therapeutics Corporation, priority 2006, dated 2012).

How the values were obtained:
[1] = Release from delayed-release particles in Simulated Intestinal Fluid (dissolution apparatus, HPLC); type: physicochemical; details: delayed-release particles containing 4-6% peptide, SIF containing 0.1% v/v Tween 80K, after 1 hour in SGF
Procedure: (§1) The stability of delayed-release particles containing 4-6% tight junction antagonist peptide (SEQ ID NO: 1) was performed. Delayed-release particles prepared as described above were exposed to Simulated Gastric Fluid (SGF) containing 0.1% v/v Tween 80K under controlled temperature (37° C.±0.5° C.) and agitation in a dissolution apparatus for 1 hour. The beads were removed from the SGF and exposed to Simulated Intestinal Fluid (SIF) containing 0.1% v/v Tween 80K. Samples were pulled from the bath and analyzed by HPLC at 220 nm on a Inertsil ODS-2 HPLC Column (150 mm×3 mm, 5 μm) with an Inertsil ODS-2 HPLC Guard Column (20 mm×4.6 […], 5 μm). Mobile Phase A: 92:8 Water:ACN, 0.1% TFA Mobile Phase B: ACN, 0.1% TFA). The chromatographic conditions are shown below.
(§2) • Run time: 17 min • Detection: 220 nm • Response time: 0.5 sec • Column Temp.: 40° C.±1° C. • Auto Sampler Temp: 10° C.±2° c. • Injection Volume: 5 μl of solution
(§3) The percentage of total tight junction effector released is determined by comparison to a reference standard of the effector.
SIF can be prepared as follows: place the following into a container: 1.9 Kg distilled water, 136 g monobasic potassium phosphate, and 18.1 gram of sodium hydroxide. Stir until completely dissolved. Dilute the solution with 18.0 Kg water. Check the pH and adjust to 6.8±0.1 with dilute HCl or NaOH. De-aerated medium. […]

[2] = Release from delayed-release particles in Simulated Gastric Fluid (dissolution apparatus, HPLC); type: physicochemical; details: delayed-release particles containing 4-6% peptide; SGF containing 0.1% v/v Tween 80K, 37° C.; time course of 60 minutes
Procedure: as §1, §2, §3
Simulated Gastric Fluid may be prepared as follows: per liter, place the following into a container: 2.0 gram sodium chloride, 7.0 mL concentrated hydrochloric acid, and 1.0 L water. Stir until completely dissolved. Check the pH and adjust to 1.2±0.1 with dilute HCl or NaOH. De-aerate medium. To this solution Tween 80 was added to 0.1% (v/v). […]

rabbit ileal mucosa = details: cited from earlier work

Row | Substance | antagonist peptide released in simulated intestinal fluid within 15 minutes ([1]; within 15 minutes) | antagonist peptide released in simulated intestinal fluid within 60 minutes ([1]; within 60 minutes) | antagonist peptide released in simulated gastric fluid [2] | effect on intestinal permeability (rabbit ileal mucosa)
1 | GGVLVQPG [SEQ ID NO:1, tight junction antagonist peptide] | Over 90% | essentially all | less than 8% | 
2 | ZOT: Zonula occludens toxin produced by Vibrio cholerae; tight junction agonist |  |  |  | increased the intestinal permeability
